This is an account of results in article PMC12375970, “Probing the extent of importin‐α targeting of the TAF8 NLS by eliminating its cationic net‐charge” (Protein Science : A Publication of the Protein Society, 2025).

Where two headings read alike, the source gives them in different places.

Assay [1] deals with importin-alpha (Homo sapiens) (UniProt P52292). Kind of assay: ITC. The conditions noted are these: cited from earlier work.
For assay [2], the target named is mouse importin‐α paralog 2 (mImpα2) lacking the importin‐β‐binding (IBB) domain, residues 70–529 (mouse) (UniProt P52293). Kind of assay: MST; Monolith NT.115; RED‐NHS‐labelled mImpα2 at 60 nM titrated against NLS peptide 250 μM–7.6 nM; 20 mM Tris–HCl, 127 mM NaCl, pH 8.0, 0.5% Tween‐20; one‐binding site and two‐binding site model fits; apparent.
In assay [3] the target is murine importin-α isoform 2 (mImpα2) lacking the importin-β-binding (IBB) domain (mouse) (UniProt P52293). In words: MST; Monolith NT.115; RED-NHS-labelled mImpα2 at 60 nM titrated against a serial 1:1 dilution (250 µM-7.6 nM) of NLS peptide with 0.5% Tween-20; 20 mM Tris-HCl, 127 mM NaCl, pH 8.0; three repeats, mean ± SD; fitted with one-binding-site, two-binding-site and Hill models; apparent affinity.

The target in assay [4] is importin-alpha (Homo sapiens) (UniProt P52292). The conditions noted are these: cited from earlier work.
The next assay concerns the target importin-beta (UniProt Q14974). The conditions noted are these: cited from earlier work.

importin-beta, sequence (Q14974 whole entry): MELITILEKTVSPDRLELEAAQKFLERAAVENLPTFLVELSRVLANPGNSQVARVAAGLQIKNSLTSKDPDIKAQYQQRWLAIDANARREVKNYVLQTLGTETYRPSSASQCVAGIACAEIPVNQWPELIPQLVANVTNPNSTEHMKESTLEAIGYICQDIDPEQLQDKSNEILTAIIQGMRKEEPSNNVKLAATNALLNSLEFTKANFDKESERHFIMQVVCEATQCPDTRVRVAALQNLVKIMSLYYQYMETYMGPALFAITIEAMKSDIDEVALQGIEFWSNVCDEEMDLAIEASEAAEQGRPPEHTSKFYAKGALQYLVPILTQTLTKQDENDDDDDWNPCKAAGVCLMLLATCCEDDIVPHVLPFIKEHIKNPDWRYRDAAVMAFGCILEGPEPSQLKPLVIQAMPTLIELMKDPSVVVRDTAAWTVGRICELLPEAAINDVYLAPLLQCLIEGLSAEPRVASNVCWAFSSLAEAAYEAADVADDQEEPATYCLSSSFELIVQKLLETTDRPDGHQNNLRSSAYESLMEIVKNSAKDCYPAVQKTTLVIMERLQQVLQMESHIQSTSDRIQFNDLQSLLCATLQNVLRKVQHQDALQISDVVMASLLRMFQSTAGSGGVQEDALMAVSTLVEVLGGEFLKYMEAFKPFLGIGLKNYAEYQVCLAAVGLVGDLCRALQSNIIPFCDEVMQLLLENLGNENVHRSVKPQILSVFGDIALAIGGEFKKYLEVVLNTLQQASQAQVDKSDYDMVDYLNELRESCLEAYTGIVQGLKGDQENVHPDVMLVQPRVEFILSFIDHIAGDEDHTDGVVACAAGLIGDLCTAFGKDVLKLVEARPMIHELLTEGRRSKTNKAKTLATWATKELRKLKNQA

Consider TAF8 NLS 297-310 (from UniProt Q7Z7C8), for which, in assay [1], the Kd is 10.4 µM.

As for “TAF8 NLS peptide (TAF8 residues 297–305, …)”, in assay [2], the KD1 (site 1, two‐binding site model) was 1 µM and the KD2 (site 2, two‐binding site model) was 1 µM. As to TAF8 NLS peptide (…, residues 297-305), in assay [3], the Kd was found to be 1.21 µM. With “importin-alpha IBB domain IBB (from UniProt P52292)”, the Kd was 14 µM in assay [4] and 0.01 µM with importin-beta.
